Results: article PMC8263732, “M1BP cooperates with CP190 to activate transcription at TAD borders and promote chromatin insulator activity” (Nature Communications, 2021)

T1: Suppressor of Hairy wing [Su(Hw)] (Drosophila (endogenous in 0-24 h Oregon …, UniProt P08970 1-941))
T1 construct: endogenous protein in embryonic nuclear extract; source: endogenous, nuclear extract of 0-24 h Drosophila embryos
T1 sequence (looked up): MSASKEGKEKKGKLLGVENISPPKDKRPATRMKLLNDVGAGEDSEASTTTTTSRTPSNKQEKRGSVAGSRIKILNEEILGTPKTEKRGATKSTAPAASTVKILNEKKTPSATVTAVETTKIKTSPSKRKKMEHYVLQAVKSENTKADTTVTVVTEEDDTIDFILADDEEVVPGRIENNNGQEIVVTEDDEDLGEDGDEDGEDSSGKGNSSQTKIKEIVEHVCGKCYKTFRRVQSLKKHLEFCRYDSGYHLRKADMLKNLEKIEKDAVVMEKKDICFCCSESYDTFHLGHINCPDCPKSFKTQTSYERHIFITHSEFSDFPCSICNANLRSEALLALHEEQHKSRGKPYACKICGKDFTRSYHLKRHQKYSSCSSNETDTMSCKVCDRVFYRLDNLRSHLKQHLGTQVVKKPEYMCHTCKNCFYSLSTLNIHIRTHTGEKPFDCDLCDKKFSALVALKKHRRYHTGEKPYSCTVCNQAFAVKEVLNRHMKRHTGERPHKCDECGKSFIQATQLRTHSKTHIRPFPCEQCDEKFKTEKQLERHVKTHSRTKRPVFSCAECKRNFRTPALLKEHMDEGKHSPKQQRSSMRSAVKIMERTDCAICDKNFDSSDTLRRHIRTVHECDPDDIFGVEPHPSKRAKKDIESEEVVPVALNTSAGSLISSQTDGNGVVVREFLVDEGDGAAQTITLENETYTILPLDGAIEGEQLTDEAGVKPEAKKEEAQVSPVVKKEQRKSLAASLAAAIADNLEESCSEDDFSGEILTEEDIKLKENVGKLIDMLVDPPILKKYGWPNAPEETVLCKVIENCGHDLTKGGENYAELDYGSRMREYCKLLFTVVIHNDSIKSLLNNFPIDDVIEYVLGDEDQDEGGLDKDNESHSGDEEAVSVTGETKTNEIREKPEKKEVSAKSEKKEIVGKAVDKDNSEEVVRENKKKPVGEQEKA

B1: Centrosomal protein 190 (CP190) (natural protein, UniProt Q24478 1-1096, looked up)
chain: MGEVKSVKVDNWGVFFLQKLQNFFNKTDYCDLTLQFRDNSQLKVHRLVLSACTDYFNVLEQTCEIVDDALIMPNEFQADVVVPIVNFMYTGTLEFELKMYGKLLRTAKEMNMTVLLKLLEAHRRTMENVNRQQRPPSPKGIRRRTVGQPSSGLPQQRVLGPSPQSRNVATPIAQRANTQRGSTGNTMSRTSGGSNRSPYGDSSNVKQEPTSPFEQLRKGYNNNKRPAQTSLLSPPSKKPSLEEVKEFAEQQRMRKQIAAEYGDNDPEYDGGMLYDDVHAGDDDDDDMPPQPSTSKQQSPQGTQTQLEHGSTTIILKQDSPSQTPTIIVKDSSNAKLNHTKIIAEVLRQYPHIVKGHKNIKLKIMPNTPAAPTEKSAPATVKPPANQSSATTSPHKKLHVSFKADKSTPLITAQQKAASSQQKSGTSQTTGNQGTGANPPANTAAAQKRRIDSKTMHALIAQGAENTTGPWLCLRCGVNGRPISIPSYRGFRRHLINTHKETIDPALCEHCGWRSVNNRELHFHMYMEHQTKSLLYTFAECALCNQSYRTKGELEAHINEVHTDDNKQQCIYCNKVFEQELQLYRHMKSYHKEQALEDGIIDETDEEFLGSQDEEEEAEGDEEQEPEQTGKVRILSDISLPATSAITVQQAQQEQLQEEDVEQVQQEVKFVGADGNEVELTDEQRKEILSQLNQQQAGATAGGVVMVLSEPEAEHVKQETDEKSLAGTEEEYDDSQIYSELGAADSVESAKKNIADESKESIDNLEWAENLIAESEEQSNKEPKSDKPRDDISEKLKELTGDWTEDENDDDVDDKPATAELASELANKDPEPTVHEEEDDIDLALQSLHKGPEEATEEKASEESVTSADDAVDAVPNINSQPEKMDVDSEAADEKASKAEVQIKKEAELENDQEEFIKEDSPIPHSDSVAELREAVTASEGEDDVHLEADNIRKELLDELIAEAEKPDQEKDIVQSEENATTEALDRSVTDEDDLVPPTQVSTEQMEIDEPAAEKAAENNEDTRTADEKEAVEDKPNQTQDVTTAEKPTLESAKAGDEATSGEAASVDKVKSLISEWGDDDEDEDENGVSAAAKEEL
notes: Centrosomal protein 190 (CP190), universal insulator protein of Drosophila; endogenous protein in embryonic nuclear extract; source: endogenous, nuclear extract of 0-24 h Drosophila embryos
B2: Modifier of mdg4 [Mod(mdg4)] 67.2 kDa isoform [Mod(mdg4)67.2] (natural protein, UniProt Q86B87 1-610, looked up)
chain: MADDEQFSLCWNNFNTNLSAGFHESLCRGDLVDVSLAAEGQIVKAHRLVLSVCSPFFRKMFTQMPSNTHAIVFLNNVSHSALKDLIQFMYCGEVNVKQDALPAFISTAESLQIKGLTDNDPAPQPPQESSPPPAAPHVQQQQIPAQRVQRQQPRASARYKIETVDDGLGDEKQSTTQIVIQTTAAPQATIVQQQQPQQAAQQIQSQQLQTGTTTTATLVSTNKRSAQRSSLTPASSSAGVKRSKTSTSANVMDPLDSTTETGATTTAQLVPQQITVQTSVVSAAEAKLHQQSPQQVRQEEAEYIDLPMELPTKSEPDYSEDHGDAAGDAEGTYVEDDTYGDMRYDDSYFTENEDAGNQTAANTSGGGVTATTSKAVVKQQSQNYSESSFVDTSGDQGNTEAQAATSASATKIPPRKRGRPKTKVEDQTPKPKLLEKLQAATLNEEASEPAVYASTTKGGVKLIFNGHLFKFSFRKADYSVFQCCYREHGEECKVRVVCDQKRVFPYEGEHVHFMQASDKSCLPSQFMPGESGVISSLSPSKELLMKNTTKLEEADDKEDEDFEEFEIQEIDEIELDEPEKTPAKEEEVDPNDFREKIKRRLQKALQNKKK
notes: Modifier of mdg4, the 67.2 kDa isoform, Drosophila; The gene has many isoforms; the 67.2 kDa isoform is meant; to be checked; source: endogenous, nuclear extract of 0-24 h Drosophila embryos
B3: Motif 1 Binding Protein (M1BP) (natural protein, UniProt Q9VHM3 1-418, looked up)
chain: MSKSALKHLKSTCRVCAKYASNKRSPKLFERSNTKMIDNIEALTGLRLENYGCLPDQICECCSMELASAVKLRERCIAAQRELLLGLTEEQRQGISAFYRAAVMGEDIVQTVKTPDDDEVYATYQEIVLEEPKEEIDDTKVEYDNTYYEVAEGHAGEDDAASLIEEADYDSIMAEDEEQQQTLELDEDTELIVGDVNDAYVYDSDDEVAVLDNVLDDEYEHENIVVKKCSLPPKPKVRSDDARRRGTGGVYICEQCGNHIKGRMAFELHCRRHRGDKQFGCELCQSRFCTTSELKRHMRKHTGERPFACKYCGRCFTDYTTRVKHERTHTNERPYVCGTCGKAFTTGYILKNHMLIHSGERAYRCELCDKSFMLPTHLSTHFRSGVHKRHLEKAEMKQVLEQEQKRELKEEEEDSLHI
notes: endogenous protein in embryonic nuclear extract; source: endogenous, nuclear extract of 0-24 h Drosophila embryos

Experiments:
Test in all cases: co-IP; 500 ug nuclear extract of 0-24 h Drosophila embryos incubated overnight at 4 C with antiserum (anti-Su(Hw), anti-CP190, anti-Mod(mdg4)67.2 or anti-M1BP; normal serum as control) cross-linked to Protein A or G Sepharose; washed twice with HBSMT and once with HBSM; western blotting; efficiency as percent of total input protein
Settings in all cases: partners not purified
[1] = molecular target: B3
[2] = molecular target: T1, Suppressor of Hairy wing [Su(Hw)]
[3] = molecular target: B2
[4] = molecular target: B1

percent of total protein immunoprecipitated with anti-M1BP [1]	percent of total protein immunoprecipitated with anti-Su(Hw) [2]	percent of total protein immunoprecipitated with anti-Mod(mdg4)67.2 [3]	percent of total protein immunoprecipitated with anti-CP190 [4]	Binder
3.8%	5.2%	11%	–	B1
1.4%	1.9%	–	8.2%	B2
–	5.3%	3%	3.8%	B3
